Reference: paper PMC12448071

Biological target: F-actin (actin from rabbit skeletal muscle, polymerised) (rabbit) (UniProt P68135)
Experiment: co-sedimentation; high-speed cosedimentation titration: constant 500 nM FL-HTT with increasing F-actin, 30 min RT; apparent constant (Kdapp); fit accounts for ligand depletion and incomplete saturation

Kd: 236 nM
Substance: recombinant human full-length wild-type HTT (21 glutamines), P42858 1-3142
